Source: article PMC4227792 (Nucleic Acids Research, 2014)
Positions count from the first letter of the chain named.

Key:
[1] = molecular target: T1, His6-Rrp41 of Sulfolobus solfataricus (Sulfolobus solfataricus, UniProt Q9UXC2 1-248); experiment: pull-down; subunits of the reconstituted Strep-Csl4 exosome (purified His6-Rrp41, His6-Rrp42 and Strep-tagged Csl4 mixed in buffer P0) recovered on Strep-Tactin Sepharose through Strep-Csl4, E. coli cell-free extract with DnaG-K6AY7A present; eluted with D-desthiobiotin; silver-stained SDS-PAGE; settings: both partners purified
T1 sequence (looked up): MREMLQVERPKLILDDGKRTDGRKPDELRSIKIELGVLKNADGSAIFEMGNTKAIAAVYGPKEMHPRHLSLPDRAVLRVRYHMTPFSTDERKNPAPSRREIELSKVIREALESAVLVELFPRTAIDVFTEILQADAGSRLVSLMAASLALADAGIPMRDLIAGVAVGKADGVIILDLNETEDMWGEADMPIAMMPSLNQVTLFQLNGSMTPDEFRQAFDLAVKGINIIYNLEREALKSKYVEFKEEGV

[2] = molecular target: T2, His6-Rrp42 of Sulfolobus solfataricus (Sulfolobus solfataricus, UniProt Q9UXC0 1-275); experiment: as above; settings: both partners purified
T2 sequence (looked up): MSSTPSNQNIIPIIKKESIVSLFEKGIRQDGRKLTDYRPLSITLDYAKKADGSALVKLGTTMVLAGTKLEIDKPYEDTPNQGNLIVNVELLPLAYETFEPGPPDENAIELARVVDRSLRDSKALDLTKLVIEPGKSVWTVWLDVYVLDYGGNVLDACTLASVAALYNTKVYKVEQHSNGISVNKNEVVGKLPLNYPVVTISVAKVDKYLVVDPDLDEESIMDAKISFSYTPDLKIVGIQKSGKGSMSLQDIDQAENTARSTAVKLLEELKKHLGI

[3] = molecular target: T3, Csl4-NT (Saccharolobus (Sulfolobus) solfataricus, UniProt Q980J9 1-189+=V+P95980:2-156, internal_change); experiment: EMSA; 25 fmol RNA; 20 mM HEPES pH 7.9, 60 mM KCl, 10 mM MgCl2, 10% glycerol, 2 mM DTT, 0.1 mM EDTA; room temperature 5 min, 10 ul; 5% native PAA gel at 4 C
T3 sequence: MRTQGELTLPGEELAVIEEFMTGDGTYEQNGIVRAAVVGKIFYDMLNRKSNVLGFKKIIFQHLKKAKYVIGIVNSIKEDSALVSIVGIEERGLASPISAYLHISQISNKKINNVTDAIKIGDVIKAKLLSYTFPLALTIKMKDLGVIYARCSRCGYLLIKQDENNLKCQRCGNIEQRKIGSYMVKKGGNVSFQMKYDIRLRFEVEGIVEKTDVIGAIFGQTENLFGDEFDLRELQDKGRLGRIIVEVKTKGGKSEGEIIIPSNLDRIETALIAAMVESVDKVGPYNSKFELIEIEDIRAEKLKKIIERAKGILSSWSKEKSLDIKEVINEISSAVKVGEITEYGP

[4] = molecular target: T4, Csl4 (Saccharolobus (Sulfolobus) solfataricus, UniProt Q980J9 1-189); experiment: as above
T4 sequence: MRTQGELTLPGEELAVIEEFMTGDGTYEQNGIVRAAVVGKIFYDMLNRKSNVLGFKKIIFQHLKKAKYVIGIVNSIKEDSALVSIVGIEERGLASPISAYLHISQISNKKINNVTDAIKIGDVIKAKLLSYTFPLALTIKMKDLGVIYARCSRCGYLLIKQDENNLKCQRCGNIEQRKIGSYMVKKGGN

[5] = molecular target: T5, DnaG-K6AY7A (Saccharolobus (Sulfolobus) solfataricus, UniProt P95980 1-406, K6A;Y7A); experiment: EMSA; 25 fmol RNA, 2.5 pmol protein; 20 mM HEPES pH 7.9, 60 mM KCl, 10 mM MgCl2, 10% glycerol, 2 mM DTT, 0.1 mM EDTA; room temperature 5 min, 10 ul; 5% native PAA gel at 4 C
T5 sequence: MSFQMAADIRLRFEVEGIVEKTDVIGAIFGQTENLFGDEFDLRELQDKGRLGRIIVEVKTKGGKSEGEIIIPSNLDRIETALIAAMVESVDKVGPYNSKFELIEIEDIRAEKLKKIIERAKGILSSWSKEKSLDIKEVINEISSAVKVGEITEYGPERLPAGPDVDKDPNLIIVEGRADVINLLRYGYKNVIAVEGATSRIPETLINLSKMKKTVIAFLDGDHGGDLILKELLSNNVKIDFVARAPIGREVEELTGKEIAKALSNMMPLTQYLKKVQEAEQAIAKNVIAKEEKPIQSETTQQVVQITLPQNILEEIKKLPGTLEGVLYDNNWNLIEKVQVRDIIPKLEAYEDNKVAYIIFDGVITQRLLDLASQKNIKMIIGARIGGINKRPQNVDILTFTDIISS

[6] = molecular target: T6, DnaG (Saccharolobus (Sulfolobus) solfataricus, UniProt P95980 1-406); experiment: as above
T6 sequence: T5 sequence with A6K, A7Y

[7] = molecular target: T6, DnaG; experiment: EMSA; 25 fmol DNA, 2.5 pmol protein; 20 mM HEPES pH 7.9, 60 mM KCl, 10 mM MgCl2, 10% glycerol, 2 mM DTT, 0.1 mM EDTA; room temperature 5 min, 10 ul; 5% native PAA gel at 4 C

B1: Strep-tagged Csl4 of Sulfolobus solfataricus (natural protein, UniProt Q980J9 1-189, looked up)
chain: T4 sequence
Question: What does the source list for B1?
Answer: binding result [1]: binds; binding result [2]: binds

B2: poly(rA)30 (ssRNA)
RNA: AAAAAAAAAAAAAAAAAAAAAAAAAAAAAA
Question: What does the source list for B2?
Answer: binding result [3]: binds; binding result [4]: no binding; binding result [5]: no binding; binding result [6]: binds

B3: poly(dA)30 (ssDNA)
DNA: B2 RNA
Question: Does B3 bind [7]?
Answer: Result: no binding
